Results on one substance are retold here after PMC2669833.

The test concerns the target Alvinella pompejana Cu, Zn superoxide dismutase (Alvinella pompejana). Briefly: SAXS.

What is called stoichiometry N is the number of molecules, sites or subunits per partner or assembly. With “Alvinella pompejana Cu, Zn superoxide dismutase (enzyme)”, the stoichiometry N is 2.
